Source: ChEMBL document CHEMBL2073860, “A third human carnitine/organic cation transporter (OCTN3) as a candidate for the 5q31 Crohn's disease locus (IBD5)” (Biochem Biophys Res Commun, 2003)

Substrate: C[N+](C)(C)CC(O)CC(=O)[O-]
Experiment: TP_TRANSPORTER: uptake in Octn3-HepG2 cells
Type: functional, cell-based

B1: Solute carrier family 22 member 21 (Mus musculus), Q9WTN6 (protein)
chain: MLDYDEVTAFLGEWGTFQRLIFFLLSASIIPNGFTGLSAVFLTAIPEHRCRIPDTVNLSSAWRNHSIPMETKDGPEVPQKCRRYRLATIANFSELGLEPGRDVDLEQLEQENCLDGWEYDKDIFLSTIVTEWDLVCKDDWKAPLTTSFFYVGVLLGSFISGQLSDRFGRKNILFLTMAMHTGFSFIQVFSVNFEMFTLLYTLVGMGHISNYVAAFVLGTEMLSKSVRIIFATLGVCIFFAFGFMVLPLFAYFIREWRRLLLAITLPGVLCGALWWFIPESPRWLISQGRIKEAEVIIRKAAKINGIVAPSTIFDPSETNKLQDDSSKKPQSHHIYDLVRTPNIRILTIMSIILWLTISVGYFGLSLDTPNLNGNIYVNCFLLAAVEVPAYVLAWLLLQHVSRRYSMAGSLFLGGSVLLLVQLVPSDLHYLSTTLVMVGKFGITSAYSMVYVYTAELYPTVVRNMGVGVSSTASRLGSILSPYFVYLGAYDRRLPYILMGSLTILTAIITLFFPESSGVSLPETIDEMQKVKKLKQRQSLSKKGSPKESKGNVSRTSRTSEPKGF
  Km: 20 µM
